This is an account of results in article PMC3031242, “A novel neuron-enriched protein SDIM1 is down regulated in Alzheimer's brains and attenuates cell death induced by DNAJB4 over-expression in neuro-progenitor cells” (Molecular Neurodegeneration, 2011).

The series concerns the molecule itself. In words: dimer-sized band on SDS-PAGE and Western blot; purified GST-SDIM1 (Coomassie and anti-SDIM1 blot, Figure 3A; anti-GST blot of the anti-GST immunoprecipitate, Figure 3D left panel lane 4). A general note: Immunoblotting shows a protein as a band on a membrane.

B1: GST-SDIM1 fusion protein (domain or fragment, human, UniProt Q6ZPB5 27-146, looked up)
chain: AGPSPGARTTLGSPLSLWSIKTPSHIFCTRRAINLGFPSPPLVQLIFWSLNAGLDLYLCLISSCGFSQVFWPVEAFCSFSLSFFALALSHKFVICRLDQHIFSGFTKSLKNLPPCHRTDI
notes: first residue C27 mutated to A to increase solubility in E. coli; Cloned into pGEX-3X; GST itself is known to dimerise; also called recombinant GST-SDIM1; SDIM1-GST fusion protein; source: E. coli Rosetta cells, purified (glutathione column)
As to B1, the binding result is on record as “binds”.
